This data set deals with the molecule itself. In words: SEC. A general note: Size exclusion chromatography separates by hydrodynamic size, large species first.

For orientation: stoichiometry N means the number of molecules, sites or subunits per partner or assembly.

B1: engineered NEK7 dimer (artificial NEK7 dimer based on the PKR dimer structure) (enzyme)
chain: not shown
With B1, the “stoichiometry N” value came out at 2.

Values taken from paper PMC6774351 (Nature, 2019).
